Measurements taken from patent US20080009025A1 (published 2008).

Target: T1, PIFtide (24 residue synthetic peptide encompassing the PDK1 binding site on PIF) (human)
T1 construct: also called wild type PIF peptide; 24 residue PIF peptide
T1 peptide: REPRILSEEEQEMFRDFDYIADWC
Test: method not stated

B1: GST-PDK1[I119A] (enzyme, not shown: a dimerising Fc or GST; small tags and cut ends)
chain: MARTTSQLYDAVPIQSSVVLCSCPSPSMVRTQTESSTPPGIPGGSRQGPAMDGTAAEPRPGAGSLQHAQPPPQPRKKRPEDFKFGKILGEGSFSTVVLARELATSREYAIKILEKRHIAKENKVPYVTRERDVMSRLDHPFFVKLYFTFQDDEKLYFGLSYAKNGELLKYIRKIGSFDETCTRFYTAEIVSALEYLHGKGIIHRDLKPENILLNEDMHIQITDFGTAKVLSPESKQARANSFVGTAQYVSPELLTEKSACKSSDLWALGCIIYQLVAGLPPFRAGNEYLIFQKIIKLEYDFPEKFFPKARDLVEKLLVLDATKRLGCEEMEGYGPLKAHPFFESVTWENLHQQTPPKLTAYLPAMSEDDEDCYGNYDNLLSQFGCMQVSSSSSSHSLSASDTGLPQRSGSNIEQYIHDLDSNSFELDLQFSEDEKRLLLEKQAGGNPWHQFVENNLILKMGPVDKRKGLFARRRQLLLTEGPHLYYVDPVNKVLKGEIPWSQELRPEAKNFKTFFVHTPNRTYYLMDPSGNAHKWCRKIQEVWRQRYQSHPDAAVQ
fold decrease in affinity (against wild type PDK1): ~10 fold
